Target: T1, GST-RhoA (p.Q63L) (UniProt P61586 1-193, p.Q63L)
T1 construct: RhoA, small GTPase, constitutively active mutant Q63L; also called GST-RhoA (Q63L); constitutively active RhoA; source: expressed in HEK293 cells
Assay: pull-down; GST binding assay; GST-RhoA proteins as bait, GFP-tagged ARHGAP10 as prey; input and bound proteins on immunoblots, densitometry with Odyssey Clx; three independent experiments

T1 sequence (P61586 whole entry Q63L): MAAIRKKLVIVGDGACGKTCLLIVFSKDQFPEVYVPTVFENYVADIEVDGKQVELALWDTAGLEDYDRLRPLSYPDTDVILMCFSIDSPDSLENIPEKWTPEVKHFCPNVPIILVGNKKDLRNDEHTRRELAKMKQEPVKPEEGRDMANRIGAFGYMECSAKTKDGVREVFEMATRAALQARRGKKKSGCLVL

band intensity percentage relative to the corresponding bait: 15.8%
B1: GFP-tagged human ARHGAP10 (p.S490P) mutant (natural protein, UniProt A1A4S6 1-786, looked up)
chain: MGLQPLEFSDCYLDSPWFRERIRAHEAELERTNKFIKELIKDGKNLIAATKSLSVAQRKFAHSLRDFKFEFIGDAVTDDERCIDASLREFSNFLKNLEEQREIMALSVTETLIKPLEKFRKEQLGAVKEEKKKFDKETEKNYSLIDKHLNLSAKKKDSHLQEADIQVEQNRQHFYELSLEYVCKLQEIQERKKFEFVEPMLSFFQGMFTFYHQGHELAKDFNHYKMELQINIQNTRNRFEGTRSEVEELMNKIRQNPKDHKRASQFTAEGYLYVQEKRPAPFGSSWVKHYCMYRKAAKKFNMIPFEHRSGGKLGDGEVFFLKECTKRHTDSIDRRFCFDIEAADRPGVSLTMQAFSEEERKQWLEALGGKEALSHSFNTAIIPRPEGNAQLDKMGFTIIRKCISAVETRGINDQGLYRVVGVSSKVQRLLSMLMDVKTCNEVDLENSADWEVKTITSALKQYLRSLPEPLMTYELHGDFIVPAKSGSPEPRVNAIHFLVHKLPEKNKEMLDILVKHLTNVSNHSKQNLMTVANLGVVFGPTLMRPQEETVAALMDLKFQNIVVEILIENHEKIFRTPPDTTFPEPTCLSASPPNAPPRQSKRQGQRTKRPVAVYNLCLELEDGDNPYPSKEDTPTSSLDSLSSPSPVTTAVPGPPGPDKNHLLADGGSFGDWASTIPGQTRSSMVQWLNPQSPTTTSSNSAVTPLSPGSSPFPFSPPATVADKPPESIRSRKARAVYPCEAEHSSELSFEIGAIFEDVQTSREPGWLEGTLNGKRGLIPQNYVKLL
notes: also called ARHGAP10 (p.S490P)-GFP; source: expressed in HEK293 cells

Reference: PMC7376022, “ARHGAP10, which encodes Rho GTPase-activating protein 10, is a novel gene for schizophrenia risk” (Translational Psychiatry, 2020)
